Blank lines part the entries; values can stand above or below the binder they belong to.
Biological target: T1, mouse PD-1 (mouse, UniProt Q02242 25-288)
T1 sequence (looked up): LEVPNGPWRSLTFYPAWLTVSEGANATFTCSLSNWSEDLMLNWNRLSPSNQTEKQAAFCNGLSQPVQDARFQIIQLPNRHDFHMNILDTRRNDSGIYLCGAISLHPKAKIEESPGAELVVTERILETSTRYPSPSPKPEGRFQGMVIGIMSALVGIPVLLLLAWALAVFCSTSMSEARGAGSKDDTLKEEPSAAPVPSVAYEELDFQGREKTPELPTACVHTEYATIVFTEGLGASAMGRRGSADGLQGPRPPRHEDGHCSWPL
Test: cell-based or functional assay

proliferation by CFSE dilution; BALB/c CD8 T cells with allogeneic C57B6 BMDDC, 0.5 micromolar, 84 h: 63.6% | proliferation by CFSE dilution; OT-I CD8 T cells with SIINFEKL-pulsed C57B6 BMDDC, 0.5 micromolar, 72 h: 43.9%
B1: LoSTIM 7 (bispecific antibody, mouse IgG2a, kappa)
heavy: DVALTQTPVAQPVTLGDQASISCRSSQSLVHSNGRTYLEWYLQKPGQSPQLLIYKVSNRFSGVPDRFIGSGSGSDFTLTISRVEPEDLGVYYCFQATHDPNTFGAGTKLELKGGGGSGGGGSGGGGSQVQLQQSGAELVKPGSSVKISCKASGYTFTSHFIHWIKQQPGNGLEWIGGIYPGDGDTEYNQQFNGKATLTADKSSSTAYMRLSSLTSEDSAVYFCATRVPSYWFFDFWGPGTMVTVSSGGGGAGGGGDVQLVESGGGLVQPGGSRKLSCAASGFTFSSFGMHWVRQAPEKGLEWVAYISSGSNTIYYADTVKGRFTISRDNPKNTLFLQMTSLRSEDTAMYYCALTTGSWFAYWGQGTLVTVSAAKTTAPSVYPLAPVCGDTTGSSVTLGCLVKGYFPEPVTLTWNSGSLSSGVHTFPAVLQSDLYTLSSSVTVTSSTWPSQSITCNVAHPASSTKVDKKIEPRGPTIKPCPPCKCPAPNLEGGPSVFIFPPKIKDVLMISLSPIVTCVVVDVSEDDPDVQISWFVNNVEVHTAQTQTHREDYNSTLRVVSALPIQHQDWMSGKAFACAVNNKDLPAPIERTISKPKGSVRAPQVYVLPPPEEEMTKKQVTLTCMVTDFMPEDIYVEWTNNGKTELNYKNTEPVLDSDGSYFMYSKLRVEKKNWVERNSYSCSVVHEGLHNHHTTKSFSRTPGK
light: DILLTQSPAILSVRPGERVSFSCRASQSLGTSIHWYQQRTDGSPRLLIKYASESISGIPSRFSGSGSGTDFTLSINSVESEDIADYYCQQSNSWPITFGAGTKLELKRADAAPTVSIFPPSSEQLTSGGASVVCFLNNFYPKDINVKWKIDGSERQNGVLNSWTDQDSKDSTYSMSSTLTLTKDEYERHNSYTCEATHKTSTSPIVKSFNRNEC

proliferation by CFSE dilution; BALB/c CD8 T cells with allogeneic C57B6 BMDDC, 0.5 micromolar, 84 h: 69.1% | proliferation by CFSE dilution; OT-I CD8 T cells with SIINFEKL-pulsed C57B6 BMDDC, 0.5 micromolar, 72 h: 78.4%
B2: LoSTIM 8 (bispecific antibody, mouse IgG2a, kappa)
heavy: DVQLVESGGGLVQPGGSRKLSCAASGFTFSSFGMHWVRQAPEKGLEWVAYISSGSNTIYYADTVKGRFTISRDNPKNTLFLQMTSLRSEDTAMYYCALTTGSWFAYWGQGTLVTVSAAKTTAPSVYPLAPVCGDTTGSSVTLGCLVKGYFPEPVTLTWNSGSLSSGVHTFPAVLQSDLYTLSSSVTVTSSTWPSQSITCNVAHPASSTKVDKKIEPRGPTIKPCPPCKCPAPNLEGGPSVFIFPPKIKDVLMISLSPIVTCVVVDVSEDDPDVQISWFVNNVEVHTAQTQTHREDYNSTLRVVSALPIQHQDWMSGKAFACAVNNKDLPAPIERTISKPKGSVRAPQVYVLPPPEEEMTKKQVTLTCMVTDFMPEDIYVEWTNNGKTELNYKNTEPVLDSDGSYFMYSKLRVEKKNWVERNSYSCSVVHEGLHNHHTTKSFSRTPGKGGGGAGGGGDVALTQTPVAQPVTLGDQASISCRSSQSLVHSNGRTYLEWYLQKPGQSPQLLIYKVSNRFSGVPDRFIGSGSGSDFTLTISRVEPEDLGVYYCFQATHDPNTFGAGTKLELKGGGGSGGGGSGGGGSQVQLQQSGAELVKPGSSVKISCKASGYTFTSHFIHWIKQQPGNGLEWIGGIYPGDGDTEYNQQFNGKATLTADKSSSTAYMRLSSLTSEDSAVYFCATRVPSYWFFDFWGPGTMVTVSS
light: B1 light

CD69 expression; OT-I CD8 T cells with SIINFEKL-pulsed BMDDC, 0.5 micromolar, 57 h: 61% | proliferation (CFSE dilution); OT-I CD8 T cells with SIINFEKL-pulsed BMDDC, 0.5 micromolar, 57 h: 90.1%
B3: LoSTIM 3 (bispecific antibody, mouse IgG2a, kappa)
heavy: DVALTQTPVAQPVTLGDQASISCRSSQSLVHSNGRTYLEWYLQKPGQSPQLLIYKVSNRFSGVPDRFIGSGSGSDFTLTISRVEPEDLGVYYCFQATHDPNTFGAGTKLELKGGGGSGGGGSGGGGSQVQLQQSGAELVKPGSSVKISCKASGYTFTSHFIHWIKQQPGNGLEWIGGIYPGDGDTEYNQQFNGKATLTADKSSSTAYMRLSSLTSEDSAVYFCATRVPSYWFFDFWGPGTMVTVSSGGGGAGGGGEVQVVETGGGLVQPGSSLKLSCESSGFTFSSTWMNWVRQAPGKGLEWVALVKDKYSNYEANYAESVKGRFIISRDDSKNRVYLQMNTLRDQDTATYHCTRSRGYKNWYFDFWGPGTMVTVSSAKTTAPSVYPLAPVCGDTTGSSVTLGCLVKGYFPEPVTLTWNSGSLSSGVHTFPAVLQSDLYTLSSSVTVTSSTWPSQSITCNVAHPASSTKVDKKIEPRGPTIKPCPPCKCPAPNLEGGPSVFIFPPKIKDVLMISLSPIVTCVVVDVSEDDPDVQISWFVNNVEVHTAQTQTHREDYNSTLRVVSALPIQHQDWMSGKAFACAVNNKDLPAPIERTISKPKGSVRAPQVYVLPPPEEEMTKKQVTLTCMVTDFMPEDIYVEWTNNGKTELNYKNTEPVLDSDGSYFMYSKLRVEKKNWVERNSYSCSVVHEGLHNHHTTKSFSRTPGK
light: DIQMTQSPPSLSASLGDKVTITCQASQNINNYIAWYQQKPGKAPGLLILYTSTLVSGTPSRFSGSGSGRDYSFSISNVESEDIASYYCLQYDNSPRTFGGGTKLELKRADAAPTVSIFPPSSEQLTSGGASVVCFLNNFYPKDINVKWKIDGSERQNGVLNSWTDQDSKDSTYSMSSTLTLTKDEYERHNSYTCEATHKTSTSPIVKSFNRNEC

CD69 expression; OT-I CD8 T cells with SIINFEKL-pulsed BMDDC, 0.5 micromolar, 57 h: 79% | proliferation (CFSE dilution); OT-I CD8 T cells with SIINFEKL-pulsed BMDDC, 0.5 micromolar, 57 h: 96.1%
B4: LoSTIM 4 (bispecific antibody, mouse IgG2a, kappa)
heavy: EVQVVETGGGLVQPGSSLKLSCESSGFTFSSTWMNWVRQAPGKGLEWVALVKDKYSNYEANYAESVKGRFIISRDDSKNRVYLQMNTLRDQDTATYHCTRSRGYKNWYFDFWGPGTMVTVSSAKTTAPSVYPLAPVCGDTTGSSVTLGCLVKGYFPEPVTLTWNSGSLSSGVHTFPAVLQSDLYTLSSSVTVTSSTWPSQSITCNVAHPASSTKVDKKIEPRGPTIKPCPPCKCPAPNLEGGPSVFIFPPKIKDVLMISLSPIVTCVVVDVSEDDPDVQISWFVNNVEVHTAQTQTHREDYNSTLRVVSALPIQHQDWMSGKAFACAVNNKDLPAPIERTISKPKGSVRAPQVYVLPPPEEEMTKKQVTLTCMVTDFMPEDIYVEWTNNGKTELNYKNTEPVLDSDGSYFMYSKLRVEKKNWVERNSYSCSVVHEGLHNHHTTKSFSRTPGKGGGGAGGGGDVALTQTPVAQPVTLGDQASISCRSSQSLVHSNGRTYLEWYLQKPGQSPQLLIYKVSNRFSGVPDRFIGSGSGSDFTLTISRVEPEDLGVYYCFQATHDPNTFGAGTKLELKGGGGSGGGGSGGGGSQVQLQQSGAELVKPGSSVKISCKASGYTFTSHFIHWIKQQPGNGLEWIGGIYPGDGDTEYNQQFNGKATLTADKSSSTAYMRLSSLTSEDSAVYFCATRVPSYWFFDFWGPGTMVTVSS
light: B3 light
